Experimental findings from publication PMC2190585 (The Journal of Cell Biology, 2000) are described below.

The experiment has as its target T1, COOH-terminal domain of Numb (aa 298–603), purified (human, UniProt P49757-2 298-603).
T1 sequence (looked up): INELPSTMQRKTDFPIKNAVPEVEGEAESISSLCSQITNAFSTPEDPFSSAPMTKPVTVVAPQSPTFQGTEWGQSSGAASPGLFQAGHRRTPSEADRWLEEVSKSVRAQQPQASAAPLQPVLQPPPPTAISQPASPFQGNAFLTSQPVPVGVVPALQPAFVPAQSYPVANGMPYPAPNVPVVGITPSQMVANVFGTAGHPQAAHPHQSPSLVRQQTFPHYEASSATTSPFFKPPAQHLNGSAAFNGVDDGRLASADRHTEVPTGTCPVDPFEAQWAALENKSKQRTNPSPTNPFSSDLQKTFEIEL
The experiment in a line: pull-down.

B1: GST–α ear (GST fusion protein containing aa 715–977 of the mouse α adaptin) (domain or fragment, UniProt P17426 715-977, looked up)
chain: PMALLADPAPAADPGPEDIGPPIPEADELLNKFVCKNSGVLFENQLLQIGVKSEFRQNLGRMYLFYGNKTSVQFQNFLPTVVHPGDLQTQLAVQTKRVAAQVDGGAQVQQVLNIECLRDFLTPPLLSVRFRYGGTAQSLTLKLPVTINKFFQPTEMAAQDFFQRWKQLSLPLQEAQKIFKANHPMDAEVTKAKLLGFGSALLDNVDPNPENFVGAGIIQTKALQVGCLLRLEPNAQAQMYRLTLRTSKEPVSRHLCELLAQQF
For the molecule B1, the binding result was “binds”.
